{
  "source": "paper PMC2783839",
  "binders": {"B1": {"name": "(Ebox)3 (dsDNA)", "DNA 1": "GATCCAGGCAGGTGGCAGGCAGGTGGCAGGCAGGTGGCAGATC", "DNA 2": "GATCTGCCACCTGCCTGCCACCTGCCTGCCACCTGCCTGGATC"}},
  "target": "T1, NEUROG2 (cNEUROG2) (Gallus gallus (chick)?, UniProt Q9YH82 1-213)",
  "T1 sequence": "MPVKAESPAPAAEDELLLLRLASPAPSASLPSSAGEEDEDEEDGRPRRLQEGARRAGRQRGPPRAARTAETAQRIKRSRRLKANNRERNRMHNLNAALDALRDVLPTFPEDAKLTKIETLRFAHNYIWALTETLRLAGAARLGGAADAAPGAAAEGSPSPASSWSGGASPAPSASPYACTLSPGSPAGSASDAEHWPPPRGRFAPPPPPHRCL",
  "assay": "EMSA",
  "data": [
    {"binder": "B1", "values": [
      {"measurement": "binding result", "value": "no binding"}
    ]}
  ]
}
